Assay results reported in the Human Domainome abundance scans (Beltran et al. 2025).
± gives the uncertainty stated by the source.

B1: Membrane-associated guanylate kinase, WW and PDZ domain-containing protein 2, residues 601 to 682; numbered along this chain, Q86UL8 (parent)
chain: AELMTLTIVKGAQGFGFTIADSPTGQRVKQILDIQGCPGLCEGDLIVEINQQNVQNLSHTEVVDILKDCPIGSETSLIIHRG

Variants of: B1
Assay: abundance fitness (aPCA) (normalised: wild type 0, dead -1); higher = more abundant; growth selection in yeast, the domain comes from the species named
Conditions: Homo sapiens

Variant	abundance fitness
A20N	-0.142 ± 0.17
A20Q	0.217 ± 0.28
A20M	0.228 ± 0.45
A20I	0.203 ± 0.27
A20R	-0.172 ± 0.081
A20V	-0.11 ± 0.085
A20S	0.003 ± 0.1
G39K	-0.192 ± 0.2
G39L	-0.22 ± 0.14
G39H	0.069 ± 0.25
G39A	-0.052 ± 0.1
G39E	-0.255 ± 0.14
G39D	-0.197 ± 0.17
G39M	-0.192 ± 0.16
I34L	0.007 ± 0.064
I34G	-0.021 ± 0.05
I34P	-0.072 ± 0.068
I34Y	0.013 ± 0.093
I34S	-0.017 ± 0.063
I34R	-0.092 ± 0.043
I34T	-0.072 ± 0.067
I34Q	-0.031 ± 0.081
I34C	-0.076 ± 0.086
I34W	-0.101 ± 0.063

Variant	abundance fitness
I34F	-0.066 ± 0.17
I34M	-0.061 ± 0.066
I34H	-0.153 ± 0.092
I34K	-0.007 ± 0.076
I34E	-0.045 ± 0.07
I34V	0.017 ± 0.059
I34A	-0.026 ± 0.053
I34N	0.034 ± 0.13
I34D	-0.036 ± 0.08
D33V	-0.152 ± 0.052
D33N	-0.043 ± 0.082
D33Q	0.024 ± 0.076
D33P	-0.147 ± 0.051
D33T	-0.02 ± 0.059
D33Y	0.049 ± 0.1
D33E	-0.089 ± 0.054
D33R	-0.061 ± 0.041
D33M	-0.124 ± 0.06
D33K	-0.192 ± 0.084
D33G	-0.11 ± 0.04
D33I	-0.243 ± 0.11
D33H	-0.088 ± 0.071
D33C	-0.092 ± 0.08
D33W	-0.117 ± 0.066

Variant	abundance fitness
F17Q	-1.07 ± 0.23
F17W	-0.022 ± 0.039
F17G	-1.11 ± 0.089
F17N	-1.36 ± 0.36
F17P	-1.04 ± 0.1
F17T	-1.2 ± 0.13
F17M	-0.105 ± 0.044
F17H	-0.881 ± 0.16
F17K	-0.978 ± 0.13
F17I	-0.057 ± 0.057
F17Y	-0.277 ± 0.061
F17R	-1.12 ± 0.091
F17L	-0.124 ± 0.032
F17S	-1.29 ± 0.12
D21N	-0.105 ± 0.45
D21P	-0.048 ± 0.14
D21Y	-0.099 ± 0.15
D21V	-0.064 ± 0.078
D21L	0.084 ± 0.11
D21A	-0.126 ± 0.087
D21H	-0.068 ± 0.45
D21M	0.079 ± 0.24
D21C	-0.14 ± 0.1
D21F	-0.208 ± 0.33

Variant	abundance fitness
D21K	-0.039 ± 0.2
D21G	-0.082 ± 0.081
D21S	-0.054 ± 0.083
D21E	-0.023 ± 0.12
D21W	-0.111 ± 0.065
L32C	-0.197 ± 0.18
L32W	-0.158 ± 0.22
L32Q	-0.212 ± 0.25
L32N	-0.124 ± 0.29
L32P	-0.119 ± 0.13
L32V	0.052 ± 0.12
L32T	-0.023 ± 0.12
L32A	-0.218 ± 0.27
L32G	0.021 ± 0.059
L32M	0.035 ± 0.24
L32K	-0.295 ± 0.12
L32I	-0.057 ± 0.13
L32S	0.024 ± 0.09
L32D	0.022 ± 0.16
L32R	-0.069 ± 0.082
L32Y	-0.16 ± 0.3
G36T	0.064 ± 0.21
G36A	-0.241 ± 0.24
G36S	-0.158 ± 0.081

Variant	abundance fitness
G36R	-0.069 ± 0.08
G36V	-0.009 ± 0.1
G36C	-0.044 ± 0.09
G36N	0.055 ± 0.21
G36E	0.037 ± 0.17
G36Q	-0.054 ± 0.2
G36M	0.04 ± 0.13
G36F	-0.245 ± 0.22
G36P	-0.057 ± 0.15
G36H	-0.126 ± 0.32
G36L	-0.261 ± 0.22
R27T	0.021 ± 0.11
R27C	-0.589 ± 0.47
R27P	-0.382 ± 0.18
R27I	0.047 ± 0.3
R27D	-0.42 ± 0.3
R27M	-0.066 ± 0.29
R27A	-0.042 ± 0.17
R27E	-0.173 ± 0.1
R27V	0.047 ± 0.12
R27H	-0.089 ± 0.21
R27S	-0.158 ± 0.096
R27W	-0.054 ± 0.18
R27G	-0.107 ± 0.1

Variant	abundance fitness
R27L	-0.007 ± 0.12
T24A	-0.013 ± 0.037
T24P	-0.017 ± 0.041
T24Y	-0.021 ± 0.075
T24F	-0.053 ± 0.087
T24N	-0.004 ± 0.099
T24V	-0.08 ± 0.04
T24H	0.02 ± 0.071
T24L	-0.023 ± 0.041
T24Q	-0.035 ± 0.044
T24E	0.024 ± 0.046
T24D	-0.037 ± 0.05
T24G	0.041 ± 0.035
T24M	-0.031 ± 0.057
T24C	-0.03 ± 0.066
T24W	-0.076 ± 0.06
T24R	0.007 ± 0.038
G25Y	-0.177 ± 0.1
G25R	-0.356 ± 0.04
G25L	-0.538 ± 0.056
G25S	-0.185 ± 0.051
G25C	-0.17 ± 0.08
G25K	-0.267 ± 0.089
G25N	-0.162 ± 0.079

Variant	abundance fitness
G25E	-0.127 ± 0.061
G25D	-0.766 ± 0.23
G25M	-0.191 ± 0.062
G25W	-0.531 ± 0.069
G25T	-0.318 ± 0.062
G25A	-0.046 ± 0.041
G25Q	-0.255 ± 0.058
G25P	-0.371 ± 0.075
G25V	-0.514 ± 0.051
G25F	-0.314 ± 0.19
I19Q	-0.708 ± 0.32
I19S	-0.634 ± 0.17
I19Y	-0.148 ± 0.12
I19G	-1.31 ± 0.28
I19R	-1.16 ± 0.25
I19P	-0.023 ± 0.36
I19L	-0.012 ± 0.085
I19H	0.134 ± 0.13
I19T	-0.169 ± 0.12
I19A	-0.542 ± 0.19
I19C	-0.335 ± 0.38
I19W	-0.203 ± 0.1
I19E	-0.872 ± 0.4
